# In article PMC10089660:
# B1: paraoxonase 1 (PON1): N253G (protein)
# parent chain: MAKLIALTLLGMGLALFRNHQSSYQTRLNALREVQPVELPNCNLVKGIETGSEDLEILPNGLAFISSGLKYPGIKSFNPNSPGKILLMDLNEEDPTVLELGITGSKFDVSSFNPHGISTFTDEDNAMYLLVVNHPDAKSTVELFKFQEEEKSLLHLKTIRHKLLPNLNDIVAVGPEHFYGTNDHYFLDPYLQSWEMYLGLAWSYVVYYSPSEVRVVAEGFDFANGINISPDGKYVYIAELLAHKIHVYEKHANWTLTPLKSLDFNTLVDNISVDPETGDLWVGCHPNGMKIFFYDSENPPASEVLRIQNILTEEPKVTQVYAENGTVLQGSTVASVYKGKLLIGTVFHKALYCEL
# B2: paraoxonase 1 (PON1): N324G (protein)
# parent chain: B1 parent chain
# B3: paraoxonase 1 (PON1): SLC35C1 RNAi (protein)
# parent chain: B1 parent chain
# B4: paraoxonase 1 (PON1): PNGase F (protein)
# parent chain: B1 parent chain
# Legend:
# [1] = sandwich ELISA of IL-6, TNF-α, GM-CSF; conditions: glycan lost; control: PON1-WT
# [2] = CHX chase, immunoblot, PON1 remaining, H1993-GR; conditions: glycan lost; control: PON1-WT
# [3] = SRB drug sensitivity assay; conditions: glycan lost; control: PON1-WT
# [4] = trypsin sensitivity, PON1 ELISA, H1993-GR Golgi/ER fraction; conditions: glycan lost; control: PON1-WT
# [5] = trypsin sensitivity, PON1 ELISA, A549 Golgi/ER fraction; conditions: glycan lost; control: PON1-WT
# [6] = trypsin sensitivity, PON1 ELISA, PON1-overexpressing cells Golgi/ER; conditions: glycan lost; control: PON1-WT
# [7] = intracellular paraoxonase activity, H1993-GR; conditions: glycan lost; control: PON1-WT
# [8] = intracellular arylesterase activity, H1993-GR; conditions: glycan lost; control: PON1-WT
# [9] = ATF6 ELISA of Golgi/ER fraction, immunofluorescence; conditions: glycan lost; control: PON1-WT
# [10] = ELISA of secretome PON1, H1993-GR; conditions: glycan lost; control: PON1-WT
# OxiSelect ROS/RNS assay = conditions: glycan lost; control: PON1-WT
# [11] = paraoxonase activity, H1993-GR Golgi/ER fraction; conditions: glycan changed form; control: siControl
# [12] = ELISA of secretome PON1, PNGase F in culture; conditions: glycan lost; control: untreated
protein,measurement,setting,value
B1,other: secretome cytokine levels,[1],increases
same,degradation_or_half_life,[2],decreases
same,other: EGFR-TKI resistance of GR and ER clones,[3],decreases
same,stability_or_folding,[4],decreases
same,stability_or_folding,[5],no change
same,stability_or_folding,[6],decreases
same,enzymatic_activity,[7],no change
same,enzymatic_activity,[8],decreases
same,other: ATF6 level in co-cultured DR clones,[9],increases
same,expression_or_secretion,[10],decreases
same,other: ROS/RNS in admixture secretome,OxiSelect ROS/RNS assay,increases
B2,other: EGFR-TKI resistance of GR and ER clones,[3],decreases
same,stability_or_folding,[4],decreases
same,expression_or_secretion,[10],decreases
B3,enzymatic_activity,[11],no change
B4,expression_or_secretion,[12],no change
